# Results as given in the Human Domainome abundance scans (Beltran et al. 2025).
# ± gives the uncertainty stated by the source.
# B1: Gamma-crystallin C, residues 4 to 79; numbered along this chain, P07315 (parent)
# chain: ITFYEDRAFQGRSYETTTDCPNLQPYFSRCNSIRVESGCWMLYERPNYQGQQYLLRRGEYPDYQQWMGLSDSIRSC
# Variants of: B1
# Experiment: abundance fitness (aPCA) (normalised: wild type 0, dead -1); higher = more abundant; growth selection in yeast, the domain comes from the species named
# Conditions: Homo sapiens
row,Variant,abundance fitness
1,ITFYEDRAFQGRSYETTTDCPNLQPYFSRCNSIRVESGCWMLYERPNYQGQFYLLRRGEYPDYQQWMGLSDSIRSC [Q52F],0.093 ± 0.23
2,ITFYEDRAFQGRSYETTTDCPNLQPYFSRCNSIRVESGCWMLYERPNYQGQCYLLRRGEYPDYQQWMGLSDSIRSC [Q52C],-0.138 ± 0.21
3,ITFYEDRAFQGRSYETTTDCPNLQPYFSRCNSIRVESGCWMLYERPNYQGQEYLLRRGEYPDYQQWMGLSDSIRSC [Q52E],0.014 ± 0.17
4,ITFYEDRAFQGRSYETTTDCPNLQPYFSRCNSIRVESGCWMLYERPNYQGQAYLLRRGEYPDYQQWMGLSDSIRSC [Q52A],-0.014 ± 0.16
5,ITFYEDRAFQGRSYETTTDCPNLQPYFSRCNSIRVESGCWMLYERPNYQGQDYLLRRGEYPDYQQWMGLSDSIRSC [Q52D],0.102 ± 0.3
6,ITFYEDRAFQGRSYETTTDCPNLQPYFSRCNSIRVESGCWMLYERPNYVGQQYLLRRGEYPDYQQWMGLSDSIRSC [Q49V],-0.098 ± 0.097
7,ITFYEDRAFQGRSYETTTDCPNLQPYFSRCNSIRVESGCWMLYERPNYLGQQYLLRRGEYPDYQQWMGLSDSIRSC [Q49L],0.022 ± 0.11
8,ITFYEDRAFQGRSYETTTDCPNLQPYFSRCNSIRVESGCWMLYERPNYDGQQYLLRRGEYPDYQQWMGLSDSIRSC [Q49D],-0.041 ± 0.41
9,ITFYEDRAFQGRSYETTTDCPNLQPYFSRCNSIRVESGCWMLYERPNYMGQQYLLRRGEYPDYQQWMGLSDSIRSC [Q49M],-0.115 ± 0.11
10,ITFYEDRAFQGRSYETTTDCPNLQPYFSRCNSIRVESGCWMLYERPNYGGQQYLLRRGEYPDYQQWMGLSDSIRSC [Q49G],-0.045 ± 0.052
11,ITFYEDRAFQGRSYETTTDCPNLQPYFSRCNSIRVESGCWMLYERPNYYGQQYLLRRGEYPDYQQWMGLSDSIRSC [Q49Y],-0.013 ± 0.3
12,ITFYEDRAFQGRSYETTTDCPNLQPYFSRCNSIRVESGCWMLYERPNYPGQQYLLRRGEYPDYQQWMGLSDSIRSC [Q49P],-0.805 ± 0.34
13,ITFYEDRAFQGRSYETTTDCPNLQPYFSRCNSIRVESGCWMLYERPNYKGQQYLLRRGEYPDYQQWMGLSDSIRSC [Q49K],-0.056 ± 0.18
14,ITFYEDRAFQGRSYETTTDCPNLQPYFSRCNSIRVESGCWMLYERPNYWGQQYLLRRGEYPDYQQWMGLSDSIRSC [Q49W],-0.275 ± 0.09
15,ITFYEDRAFQGRSYETTTDCPNLQPYFSRCNSIRVESGCWMLYERPNYAGQQYLLRRGEYPDYQQWMGLSDSIRSC [Q49A],-0.02 ± 0.085
16,ITFYEDRAFQGRSYETTTDCPNLQPYFSRCNSIRVESGCWMLYERPNYCGQQYLLRRGEYPDYQQWMGLSDSIRSC [Q49C],0.33 ± 0.29
17,ITFYEDRAFQGRSYETTTDCPNLQPYFSRCNSIRVESGCWMLYERPNYEGQQYLLRRGEYPDYQQWMGLSDSIRSC [Q49E],0.098 ± 0.15
18,ITFYEDRAFQGRSYETTTDCPNLQPYFSRCNSIRVESGCWMLYERPNYRGQQYLLRRGEYPDYQQWMGLSDSIRSC [Q49R],-0.07 ± 0.059
19,ITFYEDRAFQGRSYETTTDCPNLQPYFSRCNSIRVESGCWMLYERPNYTGQQYLLRRGEYPDYQQWMGLSDSIRSC [Q49T],0.026 ± 0.12
20,ITFYEDRAFQGRSYETTTDCPNLQPYFSRCNSIRVESGCWMLYERPNYFGQQYLLRRGEYPDYQQWMGLSDSIRSC [Q49F],-0.298 ± 0.23
21,ITFYEDRAFQGRSYETTTDCPNLQPYFSRCNSIRVESGCWMLYERPNYNGQQYLLRRGEYPDYQQWMGLSDSIRSC [Q49N],-0.053 ± 0.16
22,ITFYEDRAFQGRSYETTTDCPNLQPYFSRCNSIRVESGCWMLYERPNYQNQQYLLRRGEYPDYQQWMGLSDSIRSC [G50N],-0.359 ± 0.13
23,ITFYEDRAFQGRSYETTTDCPNLQPYFSRCNSIRVESGCWMLYERPNYQKQQYLLRRGEYPDYQQWMGLSDSIRSC [G50K],-0.574 ± 0.25
24,ITFYEDRAFQGRSYETTTDCPNLQPYFSRCNSIRVESGCWMLYERPNYQLQQYLLRRGEYPDYQQWMGLSDSIRSC [G50L],-0.894 ± 0.27

row,Variant,abundance fitness
1,ITFYEDRAFQGRSYETTTDCPNLQPYFSRCNSIRVESGCWMLYERPNYQDQQYLLRRGEYPDYQQWMGLSDSIRSC [G50D],-0.456 ± 0.2
2,ITFYEDRAFQGRSYETTTDCPNLQPYFSRCNSIRVESGCWMLYERPNYQHQQYLLRRGEYPDYQQWMGLSDSIRSC [G50H],-0.857 ± 0.43
3,ITFYEDRAFQGRSYETTTDCPNLQPYFSRCNSIRVESGCWMLYERPNYQMQQYLLRRGEYPDYQQWMGLSDSIRSC [G50M],-1.02 ± 0.38
4,ITFYEDRAFQGRSYETTTDCPNLQPYFSRCNSIRVESGCWMLYERPNYQIQQYLLRRGEYPDYQQWMGLSDSIRSC [G50I],-0.806 ± 0.37
5,ITFYEDRAFQGRSYETTTDCPNLQPYFSRCNSIRVESGCWMLYERPNYQAQQYLLRRGEYPDYQQWMGLSDSIRSC [G50A],-0.276 ± 0.17
6,ITFYEDRAFQGRSYETTTDCPNLQPYFSRCNSIRVESGCWMLYERPNYQVQQYLLRRGEYPDYQQWMGLSDSIRSC [G50V],-0.788 ± 0.23
7,ITFYEDRAFQGRSYETTTDCPNLQPYFSRCNSIRVESGCWMLYERPNYQRQQYLLRRGEYPDYQQWMGLSDSIRSC [G50R],-0.555 ± 0.08
8,ITFYEDRAFQGRSYETTTDCPNLQPYFSRCNSIRVESGCWMLYERPNYQEQQYLLRRGEYPDYQQWMGLSDSIRSC [G50E],-0.372 ± 0.074
9,ITFYEDRAFQGRSYETTTDCPNLQPYFSRCNSIRVESGCWMLYERPNYQSQQYLLRRGEYPDYQQWMGLSDSIRSC [G50S],-0.244 ± 0.1
10,ITFYEDRAFQGRSYETTTDCPNLQPYFSRCNSIRVESGCWMLYERPNYQCQQYLLRRGEYPDYQQWMGLSDSIRSC [G50C],-0.336 ± 0.35
11,ITFYEDRAFQGRSYETTTDCPNLQPYFSRCNSIRVESGCWMLYERPNGQGQQYLLRRGEYPDYQQWMGLSDSIRSC [Y48G],-0.109 ± 0.064
12,ITFYEDRAFQGRSYETTTDCPNLQPYFSRCNSIRVESGCWMLYERPNKQGQQYLLRRGEYPDYQQWMGLSDSIRSC [Y48K],-0.813 ± 0.34
13,ITFYEDRAFQGRSYETTTDCPNLQPYFSRCNSIRVESGCWMLYERPNFQGQQYLLRRGEYPDYQQWMGLSDSIRSC [Y48F],-0.584 ± 0.31
14,ITFYEDRAFQGRSYETTTDCPNLQPYFSRCNSIRVESGCWMLYERPNAQGQQYLLRRGEYPDYQQWMGLSDSIRSC [Y48A],-0.329 ± 0.11
15,ITFYEDRAFQGRSYETTTDCPNLQPYFSRCNSIRVESGCWMLYERPNTQGQQYLLRRGEYPDYQQWMGLSDSIRSC [Y48T],-0.626 ± 0.41
16,ITFYEDRAFQGRSYETTTDCPNLQPYFSRCNSIRVESGCWMLYERPNSQGQQYLLRRGEYPDYQQWMGLSDSIRSC [Y48S],-0.324 ± 0.12
17,ITFYEDRAFQGRSYETTTDCPNLQPYFSRCNSIRVESGCWMLYERPNRQGQQYLLRRGEYPDYQQWMGLSDSIRSC [Y48R],-0.508 ± 0.049
18,ITFYEDRAFQGRSYETTTDCPNLQPYFSRCNSIRVESGCWMLYERPNLQGQQYLLRRGEYPDYQQWMGLSDSIRSC [Y48L],-0.182 ± 0.072
19,ITFYEDRAFQGRSYETTTDCPNLQPYFSRCNSIRVESGCWMLYERPNMQGQQYLLRRGEYPDYQQWMGLSDSIRSC [Y48M],0.148 ± 0.068
20,ITFYEDRAFQGRSYETTTDCPNLQPYFSRCNSIRVESGCWMLYERPNHQGQQYLLRRGEYPDYQQWMGLSDSIRSC [Y48H],0.042 ± 0.21
21,ITFYEDRAFQGRSYETTTDCPNLQPYFSRCNSIRVESGCWMLYERPNEQGQQYLLRRGEYPDYQQWMGLSDSIRSC [Y48E],-0.373 ± 0.15
22,ITFYEDRAFQGRSYETTTDCPNLQPYFSRCNSIRVESGCWMLYERPNNQGQQYLLRRGEYPDYQQWMGLSDSIRSC [Y48N],-0.121 ± 0.28
23,ITFYEDRAFQGRSYETTTDCPNLQPYFSRCNSIRVESGCWMLYERPNVQGQQYLLRRGEYPDYQQWMGLSDSIRSC [Y48V],-0.955 ± 0.27
24,ITFYEDRAFQGRSYETTTDCPNLQPYFSRCNSIRVESGCWMLYERPNCQGQQYLLRRGEYPDYQQWMGLSDSIRSC [Y48C],0.083 ± 0.2

row,Variant,abundance fitness
1,ITFYEDRAFQGRSYETTTDCPNLQPYFSRCNSIRVESGCWMLYERPNYQGAQYLLRRGEYPDYQQWMGLSDSIRSC [Q51A],-0.012 ± 0.098
2,ITFYEDRAFQGRSYETTTDCPNLQPYFSRCNSIRVESGCWMLYERPNYQGCQYLLRRGEYPDYQQWMGLSDSIRSC [Q51C],-0.19 ± 0.33
3,ITFYEDRAFQGRSYETTTDCPNLQPYFSRCNSIRVESGCWMLYERPNYQGIQYLLRRGEYPDYQQWMGLSDSIRSC [Q51I],0.078 ± 0.34
4,ITFYEDRAFQGRSYETTTDCPNLQPYFSRCNSIRVESGCWMLYERPNYQGVQYLLRRGEYPDYQQWMGLSDSIRSC [Q51V],-0.016 ± 0.1
5,ITFYEDRAFQGRSYETTTDCPNLQPYFSRCNSIRVESGCWMLYERPNYQGWQYLLRRGEYPDYQQWMGLSDSIRSC [Q51W],-0.149 ± 0.13
6,ITFYEDRAFQGRSYETTTDCPNLQPYFSRCNSIRVESGCWMLYERPNYQGPQYLLRRGEYPDYQQWMGLSDSIRSC [Q51P],-0.219 ± 0.087
7,ITFYEDRAFQGRSYETTTDCPNLQPYFSRCNSIRVESGCWMLYERPNYQGEQYLLRRGEYPDYQQWMGLSDSIRSC [Q51E],-0.023 ± 0.099
8,ITFYEDRAFQGRSYETTTDCPNLQPYFSRCNSIRVESGCWMLYERPNYQGTQYLLRRGEYPDYQQWMGLSDSIRSC [Q51T],-0.159 ± 0.12
9,ITFYEDRAFQGRSYETTTDCPNLQPYFSRCNSIRVESGCWMLYERPNYQGSQYLLRRGEYPDYQQWMGLSDSIRSC [Q51S],-0.015 ± 0.22
10,ITFYEDRAFQGRSYETTTDCPNLQPYFSRCNSIRVESGCWMLYERPNYQGDQYLLRRGEYPDYQQWMGLSDSIRSC [Q51D],-0.056 ± 0.13
11,ITFYEDRAFQGRSYETTTDCPNLQPYFSRCNSIRVESGCWMLYERPNYQGGQYLLRRGEYPDYQQWMGLSDSIRSC [Q51G],-0.047 ± 0.09
12,ITFYEDRAFQGRSYETTTDCPNLQPYFSRCNSIRVESGCWMLYERPNYQGMQYLLRRGEYPDYQQWMGLSDSIRSC [Q51M],-0.088 ± 0.22
13,ITFYEDRAFQGRSYETTTDCPNLQPYFSRCNSIRVESGCWMLYERPNYQGLQYLLRRGEYPDYQQWMGLSDSIRSC [Q51L],0.014 ± 0.16
14,ITFYEDRAFQGRSYETTTDCPNLQPYFSRCNSIRVESGCWMLYERPLYQGQQYLLRRGEYPDYQQWMGLSDSIRSC [N47L],-0.01 ± 0.066
15,ITFYEDRAFQGRSYETTTDCPNLQPYFSRCNSIRVESGCWMLYERPWYQGQQYLLRRGEYPDYQQWMGLSDSIRSC [N47W],-0.086 ± 0.11
16,ITFYEDRAFQGRSYETTTDCPNLQPYFSRCNSIRVESGCWMLYERPTYQGQQYLLRRGEYPDYQQWMGLSDSIRSC [N47T],-0.1 ± 0.11
17,ITFYEDRAFQGRSYETTTDCPNLQPYFSRCNSIRVESGCWMLYERPQYQGQQYLLRRGEYPDYQQWMGLSDSIRSC [N47Q],-0.179 ± 0.078
18,ITFYEDRAFQGRSYETTTDCPNLQPYFSRCNSIRVESGCWMLYERPSYQGQQYLLRRGEYPDYQQWMGLSDSIRSC [N47S],-0.115 ± 0.085
19,ITFYEDRAFQGRSYETTTDCPNLQPYFSRCNSIRVESGCWMLYERPPYQGQQYLLRRGEYPDYQQWMGLSDSIRSC [N47P],-0.909 ± 0.4
20,ITFYEDRAFQGRSYETTTDCPNLQPYFSRCNSIRVESGCWMLYERPVYQGQQYLLRRGEYPDYQQWMGLSDSIRSC [N47V],-0.181 ± 0.13
21,ITFYEDRAFQGRSYETTTDCPNLQPYFSRCNSIRVESGCWMLYERPRYQGQQYLLRRGEYPDYQQWMGLSDSIRSC [N47R],-0.038 ± 0.058
22,ITFYEDRAFQGRSYETTTDCPNLQPYFSRCNSIRVESGCWMLYERPMYQGQQYLLRRGEYPDYQQWMGLSDSIRSC [N47M],-0.044 ± 0.12
23,ITFYEDRAFQGRSYETTTDCPNLQPYFSRCNSIRVESGCWMLYERPYYQGQQYLLRRGEYPDYQQWMGLSDSIRSC [N47Y],0.002 ± 0.24
24,ITFYEDRAFQGRSYETTTDCPNLQPYFSRCNSIRVESGCWMLYERPKYQGQQYLLRRGEYPDYQQWMGLSDSIRSC [N47K],0.025 ± 0.1
